Assay [1] has as its target AtBAG5-IQR (AtBAG5-long with Ile57, Gln58 and Arg62 substituted with alanine) (Arabidopsis thaliana, UniProt O65373 49-153, Ile57 to alanine | Gln58 to alanine | Arg62 to alanine). Description: ITC. On the technique in general: Isothermal titration calorimetry measures the heat released or taken up as one component is titrated into another.
The target in another assay is AtBAG5-CaM (with Ca2+). Description: ITC; with Ca2+ (AtBAG5/holo-CaM complex).
The next assay addresses AtBAG5/holo-CaM (Arabidopsis thaliana (AtBAG5); Homo …). Description: ITC; with Ca2+; AtBAG5 pre-bound to holo-CaM.

The Kd is a measure of binding affinity in units of concentration.

B1: ATPase domain of human Hsp70 (called Hsc70 in the results) (domain or fragment)
chain: not shown
Take B1: the Kd came out at 0.48 µM in assay [1] and 53.3 µM with AtBAG5-CaM (with Ca2+).

B2: ATPase domain of human Hsp70 (called Hsc70 in the results) (domain or fragment)
chain: not shown
modifications: CaM Ca2+-saturated (holo, 4 Ca2+; 10 mM CaCl2). AtBAG5-long limits are printed. CaM is full length with the initiator Met removed by convention. CaM species is not printed: Met144 in mature numbering fits vertebrate CaM rather than plant CaM (Val144).
Turning to B2, binding in the assay with AtBAG5/holo-CaM was put at a Kd of 53.3 µM.

The values are drawn from PMC4990970 (2016).
